Test results reported in patent US20230357323A1, “HUMAN IL23 RECEPTOR BINDING POLYPEPTIDES” (University of Washington, priority 2020, published 2023).
Like-named read-outs stand apart in the source and are kept apart here.

T1: human IL-23R (hIL-23R) (Homo sapiens, UniProt Q5VWK5)
T1 construct: his tag (C); purchased
T1 sequence (Q5VWK5 24-629): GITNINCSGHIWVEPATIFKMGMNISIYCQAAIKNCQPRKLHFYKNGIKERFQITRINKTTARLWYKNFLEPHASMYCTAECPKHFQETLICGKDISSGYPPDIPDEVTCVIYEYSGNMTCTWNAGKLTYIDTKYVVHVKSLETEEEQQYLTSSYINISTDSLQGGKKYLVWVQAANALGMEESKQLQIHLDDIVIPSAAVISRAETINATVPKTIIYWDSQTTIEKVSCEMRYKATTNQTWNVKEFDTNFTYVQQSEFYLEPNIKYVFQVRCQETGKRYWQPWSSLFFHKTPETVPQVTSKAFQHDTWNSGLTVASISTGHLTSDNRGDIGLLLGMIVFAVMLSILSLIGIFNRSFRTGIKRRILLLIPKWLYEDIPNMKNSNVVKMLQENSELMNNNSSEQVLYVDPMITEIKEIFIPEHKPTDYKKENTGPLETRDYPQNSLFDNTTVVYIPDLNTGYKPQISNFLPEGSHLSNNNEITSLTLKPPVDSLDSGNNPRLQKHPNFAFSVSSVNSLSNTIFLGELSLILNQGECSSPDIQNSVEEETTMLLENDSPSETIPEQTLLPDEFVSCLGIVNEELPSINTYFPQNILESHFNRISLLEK


What was measured:
[1] = Circular dichroism temperature and chemical denaturant (GuHCl) melts; type: physicochemical
Protocol: FIG. 3. Stability analysis of B08, a representative affinity-matured combinatorial variant and BO4dslf02, a representative disulfide-stabilized variant. (A) Designed proteins were incubated in simulated gastric or intestinal fluids and degradation was assessed by SDS PAGE at 5, 15, 30 and 60 minutes, 4 and 24 hours. (B) Resistance to temperature and chemical denaturant (GuHCl) was assessed by circular dichroism, measuring the helical signature (signal at 222 nm) in the conditions shown normalized to baseline (25° C. and 0 M GuHCl).
CD spectra were recorded with a J-1500 Circular Dichroism Spectrometer (JASCO). Proteins were assayed at […] in DPBS free of MgCl2 and […]. (Life Technologies) with guanidinium hydrochloride from 0 to 6 M, and data were collected at 25° C. For temperature melts, proteins at […] were heated from 25° C. to 95° C. over approximately 1.5 hours.

human IL-23R (hIL-23R) = target: T1, human IL-23R (hIL-23R); assay: Biolayer interferometry (BLI) binding to hIL-23R; conditions: biolayer interferometry binding titrations; read-out: affinity (KD) for hIL-23R
From the text: Two designs, 23R_A (SEQ ID NO:10) and 23R_B (SEQ ID NO:110), were highly enriched in the final selection pool and were chosen for further biochemical characterization. Both designs are 3-helix bundles (54 and 53 residues, respectively) which incorporate the native Trp hotspot at the N-terminal end of a helix such that IL-23R residue D118 forms a helix-capping hydrogen bond with the Trp hotspot's free backbone amine, similar to the αD helix of p19 (FIG. 1D). In both designs, this central binding helix has a larger interaction surface with hIL-23R, mediated by additional de novo hotspots, than p19. […]
Variants were first screened for relative binding to hIL-23R with biolayer interferometry (BLI). hIL-23R was immobilized on the BLI sensor tips and binding to each variant in solution at a constant concentration (50 nM) was measured to qualitatively determine relative performance of the variants. For the best-performing variants, binding constants (KD, including kon, and koff) were quantitatively determined with BLI titration experiments in triplicate. […]
Qualitative and quantitative assessment of binding affinity was performed using biolayer interferometry (ForteBio Octet™ […] and associated software for analysis). […] Kinetic constants were determined from the mathematical fit of a 1:1 binding model.

Row | Molecule | stability by circular dichroism (CD) ([1]; high temperature and high concentrations of chemical denaturant) | Kd (human IL-23R (hIL-23R)) [nM] | stability by circular dichroism (CD) [1]
1 | … (protein, computational design, 3-helix bundle, 54 residues) chain 1: MESEKYLRELVKKYYEGKLSVQEAVEEVRKYARKKGLEAWMLTWMFMELVKRYI chain 2: MESEKYLRELVKKYYEGKLSVQEAVEEVRKYARKKGLEAWMLTWMFMELVKRYI | high stability | 26 ± 1 | 
2 | NLWQIFYQLSTILKRTGDPTAKKLLKALAEALKKGDEKALKELAKKATKYIRS (protein, computational design, 3-helix bundle, 53 residues) chain 1: NLWQIFYQLSTILKRTGDPTAKKLLKALAEALKKGDEKALKELAKKATKYIRS chain 2: NLWQIFYQLSTILKRTGDPTAKKLLKALAEALKKGDEKALKELAKKATKYIRS |  | 70 ± 50 | high stability
